Reference: IntAct's records for PubMed 12642614

B1: Myosin-2 (Saccharomyces cerevisiae), P19524 (parent)
chain: MSFEVGTRCWYPHKELGWIGAEVIKNEFNDGKYHLELQLEDDEIVSVDTKDLNNDKDQSLPLLRNPPILEATEDLTSLSYLNEPAVLHAIKQRYSQLNIYTYSGIVLIATNPFDRVDQLYTQDMIQAYAGKRRGELEPHLFAIAEEAYRLMKNDKQNQTIVVSGESGAGKTVSAKYIMRYFASVEEENSATVQHQVEMSETEQKILATNPIMEAFGNAKTTRNDNSSRFGKYLEILFDKDTSIIGARIRTYLLERSRLVYQPPIERNYHIFYQLMAGLPAQTKEELHLTDASDYFYMNQGGDTKINGIDDAKEYKITVDALTLVGITKETQHQIFKILAALLHIGNIEIKKTRNDASLSADEPNLKLACELLGIDAYNFAKWVTKKQIITRSEKIVSNLNYSQALVAKDSVAKFIYSALFDWLVENINTVLCNPAVNDQISSFIGVLDIYGFEHFEKNSFEQFCINYANEKLQQEFNQHVFKLEQEEYVKEEIEWSFIEFNDNQPCIDLIENKLGILSLLDEESRLPAGSDESWTQKLYQTLDKSPTNKVFSKPRFGQTKFIVSHYALDVAYDVEGFIEKNRDTVSDGHLEVLKASTNETLINILEGLEKAAKKLEEAKKLELEQAGSKKPGPIRTVNRKPTLGSMFKQSLIELMNTINSTNVHYIRCIKPNADKEAWQFDNLMVLSQLRACGVLETIRISCAGFPSRWTFEEFVLRYYILIPHEQWDLIFKKKETTEEDIISVVKMILDATVKDKSKYQIGNTKIFFKAGMLAYLEKLRSNKMHNSIVMIQKKIRAKYYRKQYLQISQAIKYLQNNIKGFIIRQRVNDEMKVNCATLLQAAYRGHSIRANVFSVLRTITNLQKKIRKELKQRQLKQEHEYNAAVTIQSKVRTFEPRSRFLRTKKDTVVVQSLIRRRAAQRKLKQLKADAKSVNHLKEVSYKLENKVIELTQNLASKVKENKEMTERIKELQVQVEESAKLQETLENMKKEHLIDIDNQKSKDMELQKTIENNLQSTEQTLKDAQLELEDMVKQHDELKEESKKQLEELEQTKKTLVEYQTLNGDLQNEVKSLKEEIARLQTAMSLGTVTTSVLPQTPLKDVMGGGASNFNNMMLENSDLSPNDLNLKSRSTPSSGNNHIDSLSVDRENGVNATQINEELYRLLEDTEILNQEITEGLLKGFEVPDAGVAIQLSKRDVVYPARILIIVLSEMWRFGLTKQSESFLAQVLTTIQKVVTQLKGNDLIPSGVFWLANVRELYSFVVFALNSILTEETFKNGMTDEEYKEYVSLVTELKDDFEALSYNIYNIWLKKLQKQLQKKAINAVVISESLPGFSAGETSGFLNKIFANTEEYTMDDILTFFNSIYWCMKSFHIENEVFHAVVTTLLNYVDAICFNELIMKRNFLSWKRGLQLNYNVTRLEEWCKTHGLTDGTECLQHLIQTAKLLQVRKYTIEDIDILRGICYSLTPAQLQKLISQYQVADYESPIPQEILRYVADIVKKEAALSSSGNDSKGHEHSSSIFITPETGPFTDPFSLIKTRKFDQVEAYIPAWLSLPSTKRIVDLVAQQVVQDGH
partner: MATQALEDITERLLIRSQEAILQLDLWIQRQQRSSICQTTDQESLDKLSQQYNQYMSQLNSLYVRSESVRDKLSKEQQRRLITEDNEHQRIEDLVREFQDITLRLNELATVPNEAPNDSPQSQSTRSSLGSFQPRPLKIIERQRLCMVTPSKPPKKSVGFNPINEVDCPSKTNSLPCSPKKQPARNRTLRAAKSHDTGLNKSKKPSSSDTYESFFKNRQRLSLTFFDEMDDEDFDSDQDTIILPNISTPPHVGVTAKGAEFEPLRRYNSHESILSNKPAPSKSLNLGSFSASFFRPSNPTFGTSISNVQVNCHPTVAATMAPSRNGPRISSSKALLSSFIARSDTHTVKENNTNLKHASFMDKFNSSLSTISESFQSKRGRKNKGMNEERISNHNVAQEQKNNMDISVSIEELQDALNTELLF
B2: vacuole-related protein 17 (Saccharomyces cerevisiae), P25591 (parent)
chain: B1 partner

Variants of: B1
Conditions: with vac17_yeast VAC17, P25591

Variant | effect of a mutation on the interaction
L1301P | disrupting interaction strength
D1297N | disrupting interaction strength
N1304S | disrupting interaction strength
N1304D | disrupting interaction strength
G1248D | disrupting interaction strength

Variants of: B1
Conditions: with vac17_yeast VAC17, P25591
Remark: another data set of the same source

Variant | effect of a mutation on the interaction
G1248N | decreasing interaction strength

Variants of: B1
Conditions: with vac17_yeast VAC17, P25591
Remark: another data set of the same source

Variant | effect of a mutation on the interaction
G1248D | decreasing interaction strength

Variants of: B2
Conditions: with myo2_yeast MYO2, P19524

Variant | effect of a mutation on the interaction
MATQALEDITERLLIRSQEAILQLDLWIQRQQRSSICQTTDQESLDKLSQQYNQYMSQLNSLYVRSESVRDKLSKEQQRRLITEDNEHQRIEDLVREFQDITLRLNELATVPNEAPNDSPQSQSTRSSLGSFQPRPLKIVERQRLCMVTPSKPPKKSVGFNPINEVDCPSKTNSLPCSPKKQPARNRTLRAAKSHDTGLNKSKKPSSSDTYESFFKNRQRLSLTFFDEMDDEDFDSDQDTIILPNISTPPHVGVTAKGAEFEPLRRYNSHESILSNKPAPSKSLNLGSFSASFFRPSNPTFGTSISNVQVNCHPTVAATMAPSRNGPRISSSKALLSSFIARSDTHTVKENNTNLKHASFMDKFNSSLSTISESFQSKRGRKNKGMNEERISNHNVAQEQKNNMDISVSIEELQDALNTELLF [I140V] | with no effect
